{"source": "patent US20140289906A1", "about": "“Compositions Having Dicamba Decarboxylase Activity and Methods of Use” (priority 2013, published 2014)", "test": "14C assay: 14CO2 capture from [14C]-carboxyl-labeled dicamba with IPTG-induced recombinant E. coli cells", "conditions": "for Dicamba Decarboxylase Activity: IPTG-induced recombinant E. coli cells, 14CO2 from [14C]-carboxyl-labeled dicamba; for Enzymatic Detection level: dicamba decarboxylation activity", "data": [{"molecule": "12 (protein, listed as Zymoseptoria tritici) MALGKVAFEEAFALPRFKERTTWWAGLFAVDPEKHTREINDINKLRIEKMDQFGVGYTLLSYTAPGVQDVWQQEEADALAREVNDHVAAEIKGHEDRLGALATLSMHDPQTASAELRRCIKDYGFKGALVNDTQRNDESGTGMIFYDGPEWDVFWSTVQELDVPFYLHPRNPTGVFMEKLWAPRKWLVGPPLSFAQGVSLHLLGMVTNGTFDRFPNLQVIIGHLGEHLPFDLWRINHWFEDIKKPLGLDCKKTIREYFNENIWITTSGHFSTPTLEYCIKEIGAERILFSIDYPFEKFEDACDWYDGVELDGPDTVKKIGRENAKKLFKLGAFKDDSA", "values": [{"measurement": "Dicamba Decarboxylase Activity", "result": "No"}, {"measurement": "Enzymatic Detection level", "result": "No"}]}, {"molecule": "14 (protein, listed as Talaromyces marneffei) MARGKVSFEEAYEIPALADKSREQAALYIAPKDLDRYLSEIKSPTGGRLDISNKNGIGYTIYSLTVPGVQGIADKAKAEKHATDVNNWIYNEIKDHRDRMGAFAALSMHDPVQAGQELERCVKKLGFHGALLNNWQHAGTDGETYIFYDHPSYDVFWQKCVELDVPVYLHPSAPSGKVFDTFFKDRRYLIGPPISFAQDVALHTMGLITNGVFDRNPKLKLILGHLGERIPQDLWRTNHWLEDVERPLADSRGDTMSRKPLLYYFKNNIYVTTSGHFSTETVKFVCDYFGADRILFSVDSPYEKIEEGAGWYDKDKDNLTKALGGPQQYLDVGRENAKKLFKLGKYHDCDA", "values": [{"measurement": "Dicamba Decarboxylase Activity", "result": "Low"}, {"measurement": "Enzymatic Detection level", "result": "Low"}]}, {"molecule": "15 (protein, listed as Metarhizium anisopliae) MAQEIAKSHETSTRFAGFAVLPMRDPEAAAKELERAVKKLGFVGALVDHKTAHGNGFCEGNEYDVLWRKAEQLAVPIYLHPSWPTEKQFQQAYAGNYSPTAAGTIGGAMFNWHSEVGHHVLRLYAAGVFDKFPKLKIIIGHFGEMIPYMLDRIREQDHRLGKTGRTFSEVYDENIWITTSGVWSLDPMRCILANTKIDHILYSVDYPFTMNERGLEWFQELEKSGLLSEEDLALIAYKNCEKLLGVKAPTQD", "values": [{"measurement": "Dicamba Decarboxylase Activity", "result": "Low"}, {"measurement": "Enzymatic Detection level", "result": "Low"}]}, {"molecule": "18 (protein, listed as Legionella pneumophila) MAIVDFETHFITEACIDYLTQRQEVPKLVPELNGAYTMCFTPDVSLFHTSALMEELLSLNEQRLAIMDQAGVTIQVLSLTTINGIDSCPGDENKSTALAREVNDQLYSAIQKHPERFKGFASISPYDVKEGVKELERAISQLGFVGWLTHSNFGQDNYLDDKIYWPLLEAAESLNIPIYLHPNVPIMREFGKYGFALGGSALGFEFDTALCLMRMILGGVFDAFPKLKIMLGHLGETMPFLMERLDHLYRIPDLKPYRPSIQRIPSEVLRQNVYITTSGRFFVPALRYVLEVMGEDRVLFASDYPMESLLDATRFIQDSDLSNQTKQKIFSINAKNLNLI", "values": [{"measurement": "Dicamba Decarboxylase Activity", "result": "Low"}, {"measurement": "Enzymatic Detection level", "result": "Low"}]}, {"molecule": "20 (protein, listed as Legionella pneumophila) MAIVDFETHFITEACIDYLTQRQEVPKLVPDLNGAYTMCFTPDVSLFHTSALMEELLSLNEQRLAIMDQAGVTIQVLSLTTINGIDSCPGDENKSTALAREVNDQLYSAIQRHPERFKGFASISPYDVKEGVKELERAISQLGFVGWLTHSNFGQDNYLDDKTYWPLLEAAEGLNIPIYLHPNVPIMREFGKYGFALGGSALGFEFDTALCLMRMILGGVFDAFPKLKIMLGHLGETMPFLMERLDHLYRIPDLKAYRPSIQRIPSEVLRQNVYITTSGRFFVPALRYVLEVMGEDRVLFASDYPMESLLDATRFIQDSDLSNQTKQKIFSINAKNLNLI", "values": [{"measurement": "Dicamba Decarboxylase Activity", "result": "Low"}, {"measurement": "Enzymatic Detection level", "result": "Low"}]}, {"molecule": "105 (protein, Deinococcus radiodurans) MAIDFHVHLDLYPDPVAVARACEERQLTVLSVTTTPAAWRGTLALAAGRPHVWTALGFHPEVVSERAADLPWFDRYLPETRFVGEVGLDGSPSLRGTWTQQFAVFQHILRRCEDHGGRILSIHSRRAESEVLNCLEANPRSGTPILHWYSGSVTELRRAISLGCWFSVGPTMVRTQKGAALIRSMPRDRVLTETDGPFLELDGQAALPWDVKSVVEGLSKIWQIPASEVERIVKENVSRLLGTVR", "values": [{"measurement": "Dicamba Decarboxylase Activity", "result": "No"}, {"measurement": "Enzymatic Detection level", "result": "No"}]}, {"molecule": "107 (protein, listed as Rhodopseudomonas palustris) MAIIDIHGHYTTAPKALEDWRNRQIAGIKDPSVMPKVSELKISDDELQASIIENQLKKMQERGSDLTVFSPRASFMAHHIGDFNVSSTWAAICNELCYRVSQLFPDNFIGAAMLPQSPGVDPKTCIPELEKCVKEYGFVAINLNPDPSGGHWTSPPLTDRIWYPIYEKMVELEIPAMIHVSTSCNTCFHTTGAHYLNADTTAFMQCVAGDLFKDFPELKFVIPHGGGAVPYHWGRFRGLAQEMKKPLLEDHVLNNIFFDTCVYHQPGIDLLNTVIPVDNVLFASEMIGAVRGIDPRTGFYYDDTKRYIEASTILTPEEKQQIYEGNARRVYPRLDAALKAKGK", "values": [{"measurement": "Dicamba Decarboxylase Activity", "result": "No"}, {"measurement": "Enzymatic Detection level", "result": "No"}]}, {"molecule": "11 (protein, Aspergillus niger) MALGKIALEEAFALPRFEEKTRWWASLFSVDPETHVKEITDINKLRIEHADKYGVGYQILSYTAPGVQDIWDPVEAQALAVEINDYIAEQIRDKPDRFGAFATLSMHNPQEAASELRRCVQTYGFKGALVNDTQRAGPDGDDMIFYDNASWDIFWQTCTELDVPLYLHPRNPTGTIYEKLWADRKWLVGPPLSFAQGVSLHVLGMVTNGVFDRHPNLQLIMGHLGEHVPFDMWRINHWFEDRKKLLGLAETCKKTIREYFAQNIWITTSGHFSTTTLNFCMAEVGVDRILFSIDYPFETFEDACVWFDGAELNLSDKAKIGRDNAARLFKLGAFRDYDAKVKA", "values": [{"measurement": "Dicamba Decarboxylase Activity", "result": "Low"}, {"measurement": "Enzymatic Detection level", "result": "Low"}]}, {"molecule": "106 (protein, listed as Pyrococcus horikoshii) MAGMKFIKNLHVSKLVIDSMKALINGTIYTSFNPLKKVSGLVISHGKVIYAGDSEVAKKIVELSGGEIVDLKGKYVMPAFFDSHLHLDELGMSLEMVDLRGAKSIEELIQRLKRGKGRIIFGFGWDQDELGEWPTRKELNAIDKPVFIYRKCFHVAVANDKMLELLNLTPSKDFDEDTGIIKEKSLEEARKVINERVLTVEDYVYYIKRAQEHLLDLGVKSVSFMSVNEKALRALFYLEREGKLSINVFAYVTPEVLDKLESIGLGRFQGNRLTIAGVKLFTDGSLGARTALLSKPYSDDPSTSGQLVMEREELIRITEKARSLGLDVAIHAIGDKALDVALDVFETTGFPGRIEHASLVRDDQLERVKNLKVRLSVQPHFIISDWWIVERVGEERVKWVYRFKDLMKVAELGFSTDSPIEPADPWLTVDAAVNRGKGKVKLYELTKDQALDIKDALHSYTYGSARVSLASDIGKLEPGFKAEYIILDRDPLVVK", "values": [{"measurement": "Dicamba Decarboxylase Activity", "result": "No"}, {"measurement": "Enzymatic Detection level", "result": "No"}]}, {"molecule": "17 (protein, Aspergillus niger) MARGKIALEEAFEVKGMDEEIDAQAALYIAPKDVERYKRQIVSITDERLQLSDQNGIGYSILSLTVPGIQGITDKDKAEKRARDVNNYIHDQIKDHRDRLGAFAALSMHDPRQAGHELRRCVKELGFHGALLNDVQHTGEGDDDQPLFYDQPDYDEFWRVAVELDVPVYLHPAAPLRDTLIYKQSYEDRKYLVGPPQSYCNGVALHLMGIIVNGVFDRFPNLKVIVGHMGERIPFDFWRMDHWVKGVTRPLAEKNGDTVCQKEPLYYFKRNIYITTSGHFSTQNLRYLYEWLGDERMMFSVDFPYERMEHGCQWYDDDAEKIKEALGGRDGYLRVGRDNARRLFKLTKFKDCDAV", "values": [{"measurement": "Dicamba Decarboxylase Activity", "result": "Low"}, {"measurement": "Enzymatic Detection level", "result": "Low"}]}, {"molecule": "23 (protein, listed as Aplysina aerophoba) MAIDIDARSQPGLETARRAMSRRDFLGGAAAFGITAAATTALPASTAAGEEEDLFLLGLEEHFATAELRRLNGIQFPQGTPRFDINDVGAGRIADMDAAGIDIQVLSALTPGAQNLPGAEGVAYARRLNSWVAHEVIPAYPGRFRAFATLPLSEPQAAADELEYAVRELGFLGCMTYGAVDGKFLDHADFVPVLARAETLDVPIYIHPNWASPQVMDTYYNGLGNEWVSRVLSGAGYGWHQEVALQCLRMIASGVFDRFPRLQIIVGHMGEGLPFFYWRFGDDLARITADTLEKPVQQYFHDNFWITTSAFFRDELLRLVLSVMGEDRVMFAVDYPFVSNKVGADWFRAVDLPRNVKEKIAHKNAERLLKIGPF", "values": [{"measurement": "Dicamba Decarboxylase Activity", "result": "Low"}, {"measurement": "Enzymatic Detection level", "result": "Low"}]}, {"molecule": "10 (protein, listed as Starkeya novella) MARKIALEEHFTTPELAGKYVARPTQSDALFADIERRLADFDELRLEMMDRAEIDLMVLSVTTPGVQGVRDTGEAIRLARGANDFLAREVQKRPSRYAGFAHLAMQDAEAAATELERAVRELGFRGALINGQTNGHYLDEDQYAPFWERVQELDVPVYLHPGNMADSPAMFAHRPELGGPIWAWTAETAAHALRLVFGGTFTRFPGAKVILGHMGETLPFLLWRLDSRREFDLGEKLAPDALPSAIIKRNIAVTTSGVCDPAPLVAALQALSDDNVMFSVDYPYEDPQLASKFIETAPIGEETRAKVCHGNAERLLGL", "values": [{"measurement": "Dicamba Decarboxylase Activity", "result": "Low"}, {"measurement": "Enzymatic Detection level", "result": "Low"}]}, {"molecule": "9 (protein, listed as Octadecabacter antarcticus) MATPKITFEEHFMAPGFEKHSEAFLKLIPRDQAEILTRRLGDFDGERIETMDRGGITRSIISLTGPGTQGEAVEKAVSAAQGANDFLAEKISKKPDRLGGLATLPMHDPDAAARELNRAVNDLGLQGCLVNTHTHGAYYEGTDYDPFWAEVEKLGVPFYLHPSNAYVTPHVLGGMPVLQGATWGWGVETGSHALRILFGGVFDRFPDVKLVLGHMGEALPFLRWRYDSRFGAYPMGVSLDRAPSAYFGSNILITTSGVCSHPSLIGAIGEMGADAVMFSVDYPYEDTDLAVEFIETAPLEDATRVKICHDNAARLFGMPTLAAKEGA", "values": [{"measurement": "Dicamba Decarboxylase Activity", "result": "No"}, {"measurement": "Enzymatic Detection level", "result": "No"}]}, {"molecule": "13 (protein, listed as Metarhizium acridum) MAHGKVALEEAFALPRLHEKTRWWASLFAVNPDKHAAEMTDITDIRINYMDKHGVGYTILSYTAPGVQDISDPKEAQALAVEINDYVAGAIKNHPDRFGAFATLSMRNPQEAATELKRCVTQYGFKGALVNDTQRAGEDDMIFYDGPEWDVFWSTVEELDVPFYLHPRNPTGSLYEKLWAKRKWLVGPPLSFAQGVSLHVLGMVTNGVFDRHPKLQVVLGHLGEHIPFDMWRINHWFEDVKKPLGLDCKKTIREYFQQNIWITTSGHFSTTTLQFCMAEVGADRILFSIDYPFECFADACDWYDGVPINLVDKAKIGRDNARRLFKLPEFKDSEKHVDA", "values": [{"measurement": "Dicamba Decarboxylase Activity", "result": "No"}, {"measurement": "Enzymatic Detection level", "result": "No"}]}]}
